The data set deals with the molecule itself. Kind of data set: cryo-EM structure.

The text below walks through data of article PMC7644671 (Nature structural & molecular biology, 2020).

By stoichiometry N is commonly meant the number of molecules, sites or subunits per partner or assembly.

B1: mouse DUOX1 (enzyme, mouse (Mus musculus), UniProt A2AQ92 20-1551, looked up)
chain: GAQNSISWEVQRFDGWYNNLMEHRWGSKGSRLQRLVPASYADGVYQPLKEPYLPNPRHLSNRVMRGSAGQPSLRNRTVLGVFFGYHVLSDLVSVETPGCPAEFLNIYIPHGDPVFDPDKRGNVVLPFQRSRWDRNTGQSPSNPRDQSNQVTGWLDGSAIYGSSHSWSDTLRSFSGGQLASGPDPAFPSDSQSSLLMWMAPDPSTGQGGPRGVYAFGAQRGNREPFLQALGLLWFRYHNLCARKLAQEHPHWGDEELFQHARKRVIATYQNIAMYEWLPSFLKQTPPEYPGYRPFLDPSISPEFVVASEQFLSTMVPSGVYMRNASCHFQGIPSHNSSVSGALRVCNSYWSREHPKLQRAEDVDALLLGMASQIAEREDHVVVEDMQDFWPGPLKFSRTDYLASCLQRGRDLGLPSYTKAREALGLSPISHWQDINPALSRSNGTVLEATAALYNQDLSRLELLPGGLLESHGDPGPLFSTIVLDQFVRLRDGDRYWFENTRNGLFSKEEIAEIRNTSLRDILVAVTNVDPSALQPNVFFWLAGDPCPQPSQLSAKGLPACAPLFIRDYFEGSGFGFGLTIGTLCCFPLVSLLSAWIVARLRKRNFKRLQRQDRQSIMSEKLVGGVEALEWQGRNEPCRPVLVHLQPGQIRVVDGRLTVLRTIQLRPPQQVNLILSSNRGRRTLLLKIPKEYDLVLLFNMEEERQALVENVRGALKENGLSFQEWELREQELMRAAVTRQQRGHLLETFFRHLFSQVLDINQADAGTLPLDSSTKVREALTCELSRAEFADSLGLKPQDMFVESMFSLADKDGNGYLSFREFLDILVVFMKGSPEEKSRLMFRMYDFDGNGLISKDEFIRMLRSFIEISNNCLSKAQLAEVVESMFRESGFQDKEELTWEDFHFMLRDHDSDLRFTQLCVKGVEVPEVIKNLCRRASYISQEKICPSPRMSAHCARNNMKTASSPQRLQCPMDTDPPQEIRRRFGKKVTSFQPLLFTEAHREKFQRSRRHQTVQQFKRFIENYRRHIGCVAVFYTITGALFLERAYYYAFAAHHSGITDTTRVGIILSRGTAASISFMFSYILLTMCRNLITFLRETFLNRYIPFDAAVDFHRLIASTAIILTVLHSAGHVVNVYLFSISPLSVLSCLFPGLFHDDGSEFPQKYYWWFFQTVPGLTGVLLLLALAIMYVFASHHFRRRSFRGFWLTHHLYIFLYILLIIHGSFALIQMPRFHIFFLVPAIIYVGDKLVSLSRKKVEISVVKAELLPSGVTHLRFQRPQGFEYKSGQWVRIACLALGTTEYHPFTLTSAPHEDTLSLHIRAAGPWTTRLREIYSPPTGDTCARYPKLYLDGPFGEGHQEWHKFEVSVLVGGGIGVTPFASILKDLVFKSSVSCQVFCKKIYFIWVTRTQRQFEWLADIIREVEENDRQDLVSVHIYITQLAEKFDLRTTMLYICERHFQKVLNRSLFTGLRSITHFGRPPFEPFFNSLQEVHPQVRKIGVFSCGPPGMTKNVEKACQLINRQDRTHFSHHYENF
modifications: sugar densities at glycosylation sites N94, N324 and N534
B1: the “stoichiometry N” value came to 2.
